Experimental data published in article PMC8050884.

Tests used:
[1] = molecular target: soluble trimeric SARS-CoV-2 spike protein ectodomain (residues 1-1211) with phage foldon trimerization motif, 6xHis tag and AviTag (SARS-CoV-2 | not stated) (UniProt P0DTC2); test: negative stain electron microscopy
[2] = molecular target: SARS-CoV-2 spike trimer (aa 1-1208, furin site mutated, K986P/V987P) fused to human resistin (aa 23-108), FLAG-(His)6 (SARS-CoV-2 | human) (UniProt P0DTC2); test: SEC-MALS; SEC-UPLC in PBS + 0.02% Tween-20 on Acquity BEH450 column coupled to MALS detector and refractometer; data not shown

## soluble trimeric SARS-CoV-2 spike protein ectodomain (residues 1-1211) with phage foldon trimerization motif, 6xHis tag and AviTag (from UniProt P0DTC2 14-1211)
[1]
  stoichiometry N: 3

## SARS-CoV-2 spike trimer (aa 1-1208, furin site mutated, K986P/V987P) fused to human resistin (aa 23-108), FLAG-(His)6 (from UniProt P0DTC2;Q9HD89)
[2]
  stoichiometry N: 3
